Data published in patent US20030044400A1, “Composition and method for treating cells” (priority 2001, published 2003).

Tests used:
[1] = tested on: all the cell lines; assay: Zn or Ba alone on the cell lines; format: cell-based; conditions: all concentrations tested (up to 66 uM)
Experimental: (§1) Fetuin purified by modified Spiro method was further incubated with Zinc Acetate or Barium Acetate (0.25M) at room temperature for 1 hr. Free ions were removed by repetitive concentration against 20 volumes of PBS three times. Fetuin, Zn-charged fetuin and Ba-charged fetuin (5 uM) and PBS were then separately incubated with LNCaP cells for 4 hr. Percent of cells under apoptosis was determined by Hoechst staining and confirmed by MTS assay. Each data represents the average of two assays. Zn-charged or Ba-charged fetuin may contain free Zn or Ba (about 30 uM). However, all the cell lines are not affected by Zn or Ba alone at all concentrations tested (up to 66 uM).

[2] = tested on: LNCaP cells; assay: Fetuin-induced apoptosis, Hoechst staining confirmed by MTS assay; format: cell-based, Human; conditions: for apoptosis-inducing activity in LNCaP cells: fetal vs mature fetuins at the same concentration
Experimental: The purified fetuin was tested on various cancer cell lines. […] The DNA condensation and breakage of nuclei which are the characteristics for apoptosis were observed by staining the cell with Hoechst dye at 0.1 ug/ml.
as §1
Various concentrations of Zn-charged fetuin prepared as described were incubated with cell lines for 6 hr. Percent of cell under apoptosis was determined by Hoechst staining and confirmed by MTS assay. The concentration of Zn-charged fetuin for the induction of 50% of cells under apoptosis (LD50) was determined. Each data represents the average of three assays.

Molecule | effect of free ion alone on the cell lines [1] | apoptosis-inducing activity in LNCaP cells [2] | also measured
CC(=O)[O-].CC(=O)[O-].[Zn+2] [Zn] | not affected | – | –
CC(=O)[O-].CC(=O)[O-].[Ba+2] [Ba] | not affected | – | –
commercial fetuin: commercial fetuin purchased from Sigma, prepared by the Pederson Method (protein, UniProt P12763 19-359, looked up) Alpha-2-HS-glycoprotein: IPLDPVAGYKEPACDDPDTEQAALAAVDYINKHLPRGYKHTLNQIDSVKVWPRRPTGEVYDIEIDTLETTCHVLDPTPLANCSVRQQTQHAVEGDCDIHVLKQDGQFSVLFTKCDSSPDSAEDVRKLCPDCPLLAPLNDSRVVHAVEVALATFNAESNGSYLQLVEISRAQFVPLPVSVSVEFAVAATDCIAKEVVDPTKCNLLAEKQYGFCKGSVIQKALGGEDVRVTCTLFQTQPVIPQPQPDGAEAEAPSAVPDAAGPTPSAAGPPVASVVVGPSVVAVPLPLHRAHYDLRHTFSGVASVESSSGEAFHVGKTPIVGQPSIPGGPVRLCPGRIRYFKI | – | – | apoptotic activity by method of preparation ([2]; Pederson Method (Sigma) vs modified Spiro method): did not show apoptotic activity
mature fetuin: fetuin isolated from mature bovine serum (protein, UniProt P12763 19-359, looked up) Alpha-2-HS-glycoprotein: IPLDPVAGYKEPACDDPDTEQAALAAVDYINKHLPRGYKHTLNQIDSVKVWPRRPTGEVYDIEIDTLETTCHVLDPTPLANCSVRQQTQHAVEGDCDIHVLKQDGQFSVLFTKCDSSPDSAEDVRKLCPDCPLLAPLNDSRVVHAVEVALATFNAESNGSYLQLVEISRAQFVPLPVSVSVEFAVAATDCIAKEVVDPTKCNLLAEKQYGFCKGSVIQKALGGEDVRVTCTLFQTQPVIPQPQPDGAEAEAPSAVPDAAGPTPSAAGPPVASVVVGPSVVAVPLPLHRAHYDLRHTFSGVASVESSSGEAFHVGKTPIVGQPSIPGGPVRLCPGRIRYFKI | – | no activity inducing apoptosis | –
human fetuin: human fetuin (Alpha 2-HS glycoprotein) isolated from adult human serum (protein, UniProt P02765 19-300; P02765 341-367, looked up) Alpha-2-HS-glycoprotein chain … 1: APHGPGLIYRQPNCDDPETEEAALVAIDYINQNLPWGYKHTLNQIDEVKVWPQQPSGELFEIEIDTLETTCHVLDPTPVARCSVRQLKEHAVEGDCDFQLLKLDGKFSVVYAKCDSSPDSAEDVRKVCQDCPLLAPLNDTRVVHAAKAALAAFNAQNNGSNFQLEEISRAQLVPLPPSTYVEFTVSGTDCVAKEATEAAKCNLLAEKQYGFCKATLSEKLGGAEVAVTCMVFQTQPVSSQPQPEGANEAVPTPVVDPDAPPSPPLGAPGLPPAGSPPDSHVL Alpha-2-HS-glycoprotein chain … 2: TVVQPSVGAAAGPVVPPCPGRIRHFKV | – | fails to induce apoptosis | –
